According to IntAct's records for PubMed 22770219:

B1: Cadherin-1 (Mus musculus), P09803 (parent)
chain: MGARCRSFSALLLLLQVSSWLCQELEPESCSPGFSSEVYTFPVPERHLERGHVLGRVRFEGCTGRPRTAFFSEDSRFKVATDGTITVKRHLKLHKLETSFLVRARDSSHRELSTKVTLKSMGHHHHRHHHRDPASESNPELLMFPSVYPGLRRQKRDWVIPPISCPENEKGEFPKNLVQIKSNRDKETKVFYSITGQGADKPPVGVFIIERETGWLKVTQPLDREAIAKYILYSHAVSSNGEAVEDPMEIVITVTDQNDNRPEFTQEVFEGSVAEGAVPGTSVMKVSATDADDDVNTYNAAIAYTIVSQDPELPHKNMFTVNRDTGVISVLTSGLDRESYPTYTLVVQAADLQGEGLSTTAKAVITVKDINDNAPVFNPSTYQGQVPENEVNARIATLKVTDDDAPNTPAWKAVYTVVNDPDQQFVVVTDPTTNDGILKTAKGLDFEAKQQYILHVRVENEEPFEGSLVPSTATVTVDVVDVNEAPIFMPAERRVEVPEDFGVGQEITSYTAREPDTFMDQKITYRIWRDTANWLEINPETGAIFTRAEMDREDAEHVKNSTYVALIIATDDGSPIATGTGTLLLVLLDVNDNAPIPEPRNMQFCQRNPQPHIITILDPDLPPNTSPFTAELTHGASVNWTIEYNDAAQESLILQPRKDLEIGEYKIHLKLADNQNKDQVTTLDVHVCDCEGTVNNCMKAGIVAAGLQVPAILGILGGILALLILILLLLLFLRRRTVVKEPLLPPDDDTRDNVYYYDEEGGGEEDQDFDLSQLHRGLDARPEVTRNDVAPTLMSVPQYRPRPANPDEIGNFIDENLKAADSDPTAPPYDSLLVFDYEGSGSEAASLSSLNSSESDQDQDYDYLNEWGNRFKKLADMYGGGEDD

Variants of: B1
Conditions: with skp2_human SKP2, Q13309
skp2_human SKP2, Q13309, sequence (Q13309 whole entry): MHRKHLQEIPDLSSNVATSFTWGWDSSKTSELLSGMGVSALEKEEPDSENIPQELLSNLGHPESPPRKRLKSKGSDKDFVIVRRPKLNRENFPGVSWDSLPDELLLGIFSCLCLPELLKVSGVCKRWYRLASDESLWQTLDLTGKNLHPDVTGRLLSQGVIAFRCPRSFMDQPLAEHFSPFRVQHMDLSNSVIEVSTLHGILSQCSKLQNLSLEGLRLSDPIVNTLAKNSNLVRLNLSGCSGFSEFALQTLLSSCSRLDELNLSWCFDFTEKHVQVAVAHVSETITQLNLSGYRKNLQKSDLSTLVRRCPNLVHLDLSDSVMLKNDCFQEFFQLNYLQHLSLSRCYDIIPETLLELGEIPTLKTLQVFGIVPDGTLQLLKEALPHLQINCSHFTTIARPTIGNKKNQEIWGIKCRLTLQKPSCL

| effect of a mutation on the interaction | Variant |
| --- | --- |
| decreasing interaction strength | S840A;S842A;S846A;S849A;S852A;S855A |
